Assay results from the supplement of paper PMC7877785.
± gives the uncertainty stated by the source.

Experiment: self-splicing fitness, log relative to wild type (ln ratio); higher = more splicing; Tetrahymena group I intron in knt gene, E. coli kanamycin selection, DiMSum; sequences stand for … in CUCUCU…GGAGGGAAAAGUUAUCAGGCAUGCACCUGGUAGCUAGUCUUUAAACCAAUAGAUUGCAUCGGUUUAAAAGGCAAGACCGUCAAAUUGCGGGAAAGGGGUCAACAGCCGUUCAGUACCAAGUCUCAGGGGAAACUUUGAGAUGGCCUUGCAAAGGGUAUGGUAAUAAGCUGACGGACAUGGUCCUAACCACGCAGCCAAGUCCUAAGUCAACAGAUCUUCUGUUGAUAUGGAUGCAGUUCACAGACUAAAUGUCGGUCGGGGAAGAUGUAUUCUUCUCAUAAGAUAUAGUCGGACCUCUCCUUAAUGGGAGCUAGCGGAUGAAGUGAUGCAACACUGGAGCCGCUGGGAACUAAUUUGUAUGCGAAAGUAUAUUGAUUAGUUUUGGAGUACUCGUGGUCG
Method in brief: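 The eight P1ex-region nucleotides of an intron in the knt kanamycin-resistance gene on pET-22b(+) were all randomised and the library put into E. coli BL21(DE3). Six replicate transformations were grown overnight at 37°C or 30°C on LB agar with or without 25 μg/mL kanamycin, together with 100 μg/mL carbenicillin, 50 μM IPTG and 0.2% rhamnose. Colonies were pooled and amplicon-sequenced on an Illumina HiSeq 2500. Fitness from DiMSum is the error-weighted combination of wild-type-normalised replicate fold changes, kanamycin over none.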

Sequence	self-splicing fitness (ln) (30 °C)	self-splicing fitness (ln) (37 °C)
UGCUAGCAAUAUUACGUUCU	-0.686 ± 0.092	-0.861 ± 0.12
UGGAAGCAAUAUUACGACGC	-1.66 ± 0.22	-1.05 ± 0.28
UGGAAGCAAUAUUACGAUAA	-1.6 ± 0.12	-0.36 ± 0.15
UGGAAGCAAUAUUACGCAGC	-2.22 ± 0.42	-2.6 ± 0.26
UGGAAGCAAUAUUACGCCAG	-1.55 ± 0.18	0.0553 ± 0.21
UGGAAGCAAUAUUACGCGUG	-0.258 ± 0.091	-0.135 ± 0.12
UGGAAGCAAUAUUACGCUGC	-3.48 ± 0.32	-2.15 ± 0.38
UGGAAGCAAUAUUACGGCAG	-1.15 ± 0.16	-0.772 ± 0.25
UGGAAGCAAUAUUACGGCCG	-0.385 ± 0.18	-0.0898 ± 0.3
UGGAAGCAAUAUUACGGGCA	-0.216 ± 0.083	-0.335 ± 0.087
UGGAAGCAAUAUUACGGGUU	-2.85 ± 0.18	-2.38 ± 0.41
UGGAAGCAAUAUUACGGUAG	-1.89 ± 0.12	-1.82 ± 0.11
UGGAAGCAAUAUUACGUAAG	-1.07 ± 0.12	-0.81 ± 0.13
UGGAAGCAAUAUUACGUACA	-0.926 ± 0.1	0.227 ± 0.11
UGGAAGCAAUAUUACGUCGG	-0.128 ± 0.11	-0.162 ± 0.11
UGGAAGCAAUAUUACGUGUG	-1.06 ± 0.073	-0.706 ± 0.091
UGGAAGCAAUAUUACGUUAU	-2.23 ± 0.14	-3.09 ± 0.2
UGGAAGCAAUAUUACGUUCG	0.201 ± 0.087	-0.347 ± 0.096
UGGCAGCAAUAUUACGAAUA	-1.36 ± 0.12	-0.17 ± 0.13

Sequence	self-splicing fitness (ln) (30 °C)	self-splicing fitness (ln) (37 °C)
UGGCAGCAAUAUUACGAGAG	-2.95 ± 0.21	-2.74 ± 0.29
UGGCAGCAAUAUUACGAGCC	-2.1 ± 0.29	-2.37 ± 0.44
UGGCAGCAAUAUUACGAUCA	-0.413 ± 0.14	-0.198 ± 0.12
UGGCAGCAAUAUUACGCAAA	-1.87 ± 0.23	-0.513 ± 0.26
UGGCAGCAAUAUUACGCAGU	-4.13 ± 0.36	-2.57 ± 0.21
UGGCAGCAAUAUUACGCAUU	-1.05 ± 0.097	-0.267 ± 0.089
UGGCAGCAAUAUUACGCGAA	-0.273 ± 0.088	-0.139 ± 0.1
UGGCAGCAAUAUUACGCGUU	-1.6 ± 0.077	-0.555 ± 0.081
UGGCAGCAAUAUUACGGAAU	-2.54 ± 0.12	-1.22 ± 0.17
UGGCAGCAAUAUUACGGACG	0.0917 ± 0.19	0.916 ± 0.24
UGGCAGCAAUAUUACGGAGU	-2.61 ± 0.17	-3.96 ± 0.31
UGGCAGCAAUAUUACGGCCU	-1.91 ± 0.18	-1.57 ± 0.18
UGGCAGCAAUAUUACGGGAA	-2.17 ± 0.13	-0.784 ± 0.1
UGGCAGCAAUAUUACGGUAG	-0.874 ± 0.062	-0.684 ± 0.084
UGGCAGCAAUAUUACGGUCC	-0.382 ± 0.16	0.88 ± 0.13
UGGCAGCAAUAUUACGUAAA	-0.723 ± 0.077	-0.922 ± 0.093
UGGCAGCAAUAUUACGUACA	0.117 ± 0.071	0.116 ± 0.1
UGGCAGCAAUAUUACGUAUC	-3.85 ± 0.31	-1.82 ± 0.25
UGGCAGCAAUAUUACGUCAG	-0.12 ± 0.074	-0.817 ± 0.11
